First the molecules themselves.
B1: KaiB (natural protein)
chain: MSPRKTYILKLYVAGNTPNSVRALKTLKNILEVEFQGVYALKVIDVLKNPQLAEEDKILATPTLAKVLPLPVRRIIGDLSDREKVLIGLDLLYGELQDSDDF
B2: KaiC-pSpT (KaiC fully phosphorylated at S431 and T432) (natural protein)
chain: MTSAEMTSPNNNSEHQAIAKMRTMIEGFDDISHGGLPIGRSTLVSGTSGTGKTLFSIQFLYNGIIEFDEPGVFVTFEETPQDIIKNARSFGWDLAKLVDEGKLFILDASPDPEGQEVVGGFDLSALIERINYAIQKYRARRVSIDSVTSVFQQYDASSVVRRELFRLVARLKQIGATTVMTTERIEEYGPIARYGVEEFVSDNVVILRNVLEGERRRRTLEILKLRGTSHMKGEYPFTITDHGINIFPLGAMRLTQRSSNVRVSSGVVRLDEMCGGGFFKDSIILATGATGTGKTLLVSRFVENACANKERAILFAYEESRAQLLRNAYSWGMDFEEMERQNLLKIVCAYPESAGLEDHLQIIKSEINDFKPARIAIDSLSALARGVSNNAFRQFVIGVTGYAKQEEITGLFTNTSDQFMGAHSITDSHISTITDTIILLQYVEIRGEMSRAINVFKMRGSWHDKAIREFMISDKGPDIKDSFRNFERIISGSPTRITVDEKSELSRIVRGVQEKGPES
modifications: phosphorylated S431 (pS431), phosphorylated T432 (pT432)
B3: KaiC T432V mutant (KaiC-SV) (natural protein)
chain: B2 chain with T432V
B4: KaiC-pST (KaiC phosphorylated at S431 only) (natural protein)
chain: B2 chain
modifications: phosphorylated S431 (pS431)
B5: KaiA (natural protein)
chain: MLSQIAICIWVESTAILQDCQRALSADRYQLQVCESGEMLLEYAQTHRDQIDCLILVAANPSFRAVVQQLCFEGVVVPAIVVGDRDSEDPDEPAKEQLYHSAELHLGIHQLEQLPYQVDAALAEFLRLAPVETMADHIMLMGANHDPELSSQQRDLAQRLQERLGYLGVYYKRDPDRFLRNLPAYESQKLHQAMQTSYREIVLSYFSPNSNLNQSIDNFVNMAFFADVPVTKVVEIHMELMDEFAKKLRVEGRSEDILLDYRLTLIDVIAHLCEMYRRSIPRET

In data set [1] the target is B3. Put plainly: SEC-MALS. Background: SEC sorts molecules by how far they enter the pores of the column.
The data set “crystal structure” deals with the molecule itself. Put plainly: crystal structure.

Numbering of substitutions follows the chain as printed. Names and notes keep the numbering of the source.

On to B1, for which the binding result in data set [1] is “binds”.

B2: the stoichiometry N (as a rule, a count of units in the complex or per binding partner) in the data set “crystal structure” came to 6.

Turning to B3, in “crystal structure”, the binding result is reported as “binds”.

As for B4, in “crystal structure”, the “stoichiometry N” value is 6.

Regarding B5, in data set [1], the binding result is on record as “binds”.

The values above are taken from publication PMC9012456 (Science Advances, 2022).
